One substance from PMC5986150 can be followed below.

Assay [1] has as its target Calmodulin of Calmodulin Sepharose 4B (GE Healthcare Life Sciences) (UniProt P62157). Kind of assay: pull-down; commercial Calmodulin Sepharose 4B (GE); clarified E. coli lysate with CaN (2 mM CaCl2) incubated with the resin at 4°C, in parallel with the 12-ADA CaM resins; eluted with 1 mM EGTA; semi-quantitative SDS-PAGE with Coomassie.
For assay [2], the target named is 12-ADA CaM (Drosophila melanogaster calmodulin engineered with an N-terminal N-myristoyl transferase recognition peptide and labelled with 12-azidododecanoic acid) (Drosophila melanogaster) (UniProt P62152). Kind of assay: pull-down; purified 12-ADA CaM (1, 2 or 5 mg mL^-1) conjugated to DBCO-Sepharose; clarified E. coli lysate with CaN (25 mM Tris pH 7.5, 3 mM MgCl2, 100 mM NaCl, 2 mM CaCl2) incubated with the resin at 4°C for 45 minutes - 1 hr; washes with 2 mM CaCl2, one with 1 M NaCl; eluted with 1 mM EGTA; semi-quantitative SDS-PAGE with Coomassie.

For assay [3] the target is unchanged. Kind of assay: pull-down; 12-ADA CaM conjugated to DBCO-Sepharose directly from clarified lysate, resin washed; clarified E. coli lysate with CaN (25 mM Tris pH 7.5, 3 mM MgCl2, 100 mM NaCl, 2 mM CaCl2) incubated with the resin at 4°C for 45 minutes - 1 hr; washes with 2 mM CaCl2, one with 1 M NaCl; eluted with 1 mM EGTA; semi-quantitative SDS-PAGE with Coomassie.

As for “Human calcineurin (CaN), α and β subunits (from UniProt Q08209 1-521; P63098 1-170) (complex)”, the figures for the avg. amount of CaN purified from the resin in assay [1], in assay [2] and in assay [3] were 0.2 mg, 0.1 mg and 0.6 mg, respectively.
